Substrate in the data set: O=[N+]([O-])O
Kind of data set: cells, lysate or membranes. More on the design: species or system Nicotiana tabacum. Conditions: whole roots of 2-day N-starved tobacco plants (wild-type K326 background subtracted); 5–500 μM nitrate; labelled compound (15N).

B1: NtNRT1.1B (Nicotiana tabacum) (protein)
chain: MALPETQQDSKALPDAWDYKGRPALRSSSGGWASGAMILGVEAVERLTTLGIAVNLVTYLTGTMHLGNATAANNVTNFLGTSFMLTLFGGFVADTFLGRYLTIGIFATVQAMGVTILTISTIIPSLRPPKCEQVGSSSCIPANSKQLMVLYIALYMTALGTGGLKSSVSGFGTDQFDDADKKEKGQMIKFFDWFFFFINVGSLGAVTVLVYIQDNLGREWGYGICACAIVIGLVVFLSGTRKYRFKKLVGSPLTQIASVIVAAWKKRHLELLSDSSLLFEIDDIFGEGNKKNKQKLPHSKEYRFLDKAAIKEDHDLESNGTNVVINKWKLATLTDVEEVKLLIRMLPTWATTIMFWTVYAQMTTFSVSQATTMDRHIGTFEIPPASLTVFFVGSILLTVIFYDRVIVPICRRFMNKPHGLTPLQRIFTGLVLSILAMIAAALTEVKRLKVAHLHGLTNDANATIPLSVFWLVPQFLLVGAGEAFTYIGQLDFFLRECPKGMKTMSTGLFLSTLALGFFFSSILVTIVHVVTGTTNPWLADNLNQGRLYDFYWLLAILSVLNLMFFLYFSRKYVYKEKRLAEMGIELEDDGPVCH
notes: full-length untagged ORF (1,785 bp, 594 residues) under CaMV 35S promoter, overexpressed in tobacco K326 (line L1); formerly named NtNRT1.2 (Liu et al., 2018)
As for B1, the Michaelis constant (Km) is 29.05 ± 3.34 µM.

As a reminder, the Km is the substrate concentration at which the rate is half of its maximum.

The values are drawn from paper PMC10011135, “Molecular identification and physiological functional analysis of NtNRT1.1B that mediated nitrate long-distance transport and improved plant growth when overexpressed in tobacco” (Frontiers in Plant Science, 2023).
